According to publication PMC10397247:

Legend:
Assay in all cases: two-hybrid library CCmax;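 also: natural log of median RNA to DNA barcode read ratio; higher means stronger binding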
4H2162-AA = target: T1, 4H2162-AA; conditions: mean of both orientations
T1 chain: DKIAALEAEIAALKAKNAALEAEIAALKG

4H3395-AA = target: T2, 4H3395-AA
T2 chain: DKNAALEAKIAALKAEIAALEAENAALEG

4H310-AA = target: T3, 4H310-AA; conditions: mean of both orientations
T3 chain: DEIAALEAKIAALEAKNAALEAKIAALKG

4H629-AA = target: T4, 4H629-AA; conditions: mean of both orientations
T4 chain: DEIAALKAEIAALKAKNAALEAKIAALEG

4H3753-AA = target: T5, 4H3753-AA; conditions: mean of both orientations
T5 chain: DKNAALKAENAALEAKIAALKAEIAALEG

4H3381-AA = target: T6, 4H3381-AA; conditions: mean of both orientations
T6 chain: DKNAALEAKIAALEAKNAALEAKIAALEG

4H174-AA = target: T7, 4H174-AA
T7 chain: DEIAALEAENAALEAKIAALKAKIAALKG

4H909-AA = target: T8, 4H909-AA; conditions: mean of both orientations
T8 chain: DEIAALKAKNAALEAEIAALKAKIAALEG

4H570-AA = target: T9, 4H570-AA; conditions: mean of both orientations
T9 chain: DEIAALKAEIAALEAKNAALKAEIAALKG

4H1842-AA = target: T10, 4H1842-AA; conditions: mean of both orientations
T10 chain: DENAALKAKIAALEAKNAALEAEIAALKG

4H3009-AA = target: T11, 4H3009-AA; conditions: mean of both orientations
T11 chain: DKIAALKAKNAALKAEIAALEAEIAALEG

4H2725-AA = target: T12, 4H2725-AA; conditions: mean of both orientations
T12 chain: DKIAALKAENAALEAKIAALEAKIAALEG

4H2473-AA = target: T13, 4H2473-AA; conditions: mean of both orientations
T13 chain: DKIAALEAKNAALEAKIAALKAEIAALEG

4H745-AA = target: T14, 4H745-AA; conditions: mean of both orientations
T14 chain: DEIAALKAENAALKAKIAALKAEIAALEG

4H3865-AA = target: T15, 4H3865-AA; conditions: mean of both orientations
T15 chain: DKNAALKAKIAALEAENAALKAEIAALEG

4H485-AA = target: T16, 4H485-AA; conditions: mean of both orientations
T16 chain: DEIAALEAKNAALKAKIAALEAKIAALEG

4H2649-AA = target: T17, 4H2649-AA; conditions: mean of both orientations
T17 chain: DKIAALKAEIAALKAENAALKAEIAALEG

4H3697-AA = target: T18, 4H3697-AA; conditions: mean of both orientations
T18 chain: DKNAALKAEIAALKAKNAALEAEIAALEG

4H2109-AA = target: T19, 4H2109-AA; conditions: mean of both orientations
T19 chain: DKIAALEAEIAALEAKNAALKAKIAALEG

4H2330-AA = target: T20, 4H2330-AA; conditions: mean of both orientations
T20 chain: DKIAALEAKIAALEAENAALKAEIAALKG

4H2389-AA = target: T21, 4H2389-AA; conditions: mean of both orientations
T21 chain: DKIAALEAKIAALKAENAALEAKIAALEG

4H3165-AA = target: T22, 4H3165-AA; conditions: mean of both orientations
T22 chain: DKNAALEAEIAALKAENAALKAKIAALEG

4H2438-AA = target: T23, 4H2438-AA; conditions: mean of both orientations
T23 chain: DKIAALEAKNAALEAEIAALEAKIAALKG

4H850-AA = target: T24, 4H850-AA; conditions: mean of both orientations
T24 chain: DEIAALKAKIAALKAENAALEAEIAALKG

4H3130-AA = target: T25, 4H3130-AA
T25 chain: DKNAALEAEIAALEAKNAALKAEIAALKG

4H94-AA = target: T26, 4H94-AA; conditions: mean of both orientations
T26 chain: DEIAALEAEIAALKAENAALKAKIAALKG

4H2274-AA = target: T27, 4H2274-AA; conditions: mean of both orientations
T27 chain: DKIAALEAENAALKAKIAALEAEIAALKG

4H3410-AA = target: T28, 4H3410-AA; conditions: mean of both orientations
T28 chain: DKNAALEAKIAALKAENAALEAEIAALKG

4H2865-AA = target: T29, 4H2865-AA; conditions: mean of both orientations
T29 chain: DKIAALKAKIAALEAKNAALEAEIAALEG

4H3590-AA = target: T30, 4H3590-AA; conditions: mean of both orientations
T30 chain: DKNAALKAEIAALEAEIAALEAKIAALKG

4H1877-AA = target: T31, 4H1877-AA; conditions: mean of both orientations
T31 chain: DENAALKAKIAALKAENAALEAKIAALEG

4H797-AA = target: T32, 4H797-AA; conditions: mean of both orientations
T32 chain: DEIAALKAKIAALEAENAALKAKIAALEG

4H3120-AA = target: T33, 4H3120-AA; conditions: mean of both orientations
T33 chain: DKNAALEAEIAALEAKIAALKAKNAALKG

4H1864-AA = target: T34, 4H1864-AA; conditions: mean of both orientations
T34 chain: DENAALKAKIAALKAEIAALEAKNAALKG

4H458-AA = target: T35, 4H458-AA; conditions: mean of both orientations
T35 chain: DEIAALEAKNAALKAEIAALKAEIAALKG

4H536-AA = target: T36, 4H536-AA; conditions: mean of both orientations
T36 chain: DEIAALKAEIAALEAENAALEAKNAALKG

4H3016-AA = target: T37, 4H3016-AA; conditions: mean of both orientations
T37 chain: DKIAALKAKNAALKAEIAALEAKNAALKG

4H2698-AA = target: T38, 4H2698-AA; conditions: mean of both orientations
T38 chain: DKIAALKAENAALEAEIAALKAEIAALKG

4H710-AA = target: T39, 4H710-AA; conditions: mean of both orientations
T39 chain: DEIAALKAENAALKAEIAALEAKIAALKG

4H891-AA = target: T40, 4H891-AA; conditions: mean of both orientations
T40 chain: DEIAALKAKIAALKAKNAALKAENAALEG

4H930-AA = target: T41, 4H930-AA; conditions: mean of both orientations
T41 chain: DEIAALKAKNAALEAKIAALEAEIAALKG

4H2253-AA = target: T42, 4H2253-AA; conditions: mean of both orientations
T42 chain: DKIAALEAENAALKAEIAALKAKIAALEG

Q: Which results are given for DEIAALEAENAALEAKIAALKAKIAALKG [4H174-AA]?
A: interaction score (4H2162-AA): -0.944; interaction score (4H3395-AA): 0.219; interaction score (4H310-AA): 1.6; interaction score (4H629-AA): -0.697; interaction score (4H3753-AA): 1.06; interaction score (4H3381-AA): -1.38; interaction score (4H174-AA): 1.79; interaction score (4H909-AA): 0.929; interaction score (4H570-AA): 1.49; interaction score (4H1842-AA): -0.689; interaction score (4H3009-AA): 2.3; interaction score (4H2725-AA): 1.47; interaction score (4H2473-AA): 1.69; interaction score (4H745-AA): 1.69; interaction score (4H3865-AA): 0.259; interaction score (4H485-AA): 1.94; interaction score (4H2649-AA): -0.748; interaction score (4H3697-AA): -0.364; interaction score (4H2109-AA): 2.01; interaction score (4H2330-AA): 0.552; interaction score (4H2389-AA): -0.219; interaction score (4H3165-AA): -1.24; interaction score (4H2438-AA): 2.25; interaction score (4H850-AA): 1.05; interaction score (4H3130-AA): 1.99; interaction score (4H94-AA): 1.29; interaction score (4H2274-AA): 1.3; interaction score (4H3410-AA): -0.289; interaction score (4H2865-AA): 0.805; interaction score (4H3590-AA): 2.2; interaction score (4H1877-AA): -0.507; interaction score (4H797-AA): -1.35; interaction score (4H3120-AA): -0.846; interaction score (4H1864-AA): -0.256; interaction score (4H458-AA): 0.887; interaction score (4H536-AA): -0.546; interaction score (4H3016-AA): 1.81; interaction score (4H2698-AA): 2.04; interaction score (4H710-AA): 2.23; interaction score (4H891-AA): -0.401; interaction score (4H930-AA): 1.44; interaction score (4H2253-AA): 0.429
